Kd data for one substance are collected here from PMC4870127.

Holding throughout (test): FXa generation assay
Test [1] addresses Factor VIIIa (WT), thrombin-activated WT B-domainless FVIII.
The target in test [2] is Factor VIIIa D666S/S1787D swap variant (thrombin-activated B-domainless FVIII).
Test [3] deals with Factor VIIIa T657Y/Y1792T swap variant (thrombin-activated B-domainless FVIII).

“FIXaβ (from UniProt P00740 47-191; P00740 227-461) (enzyme)”: the Kd was 0.92 nM in test [1], 1.73 nM in test [2] and 1.45 nM in test [3].

What is called Kd is the constant that tells how readily two partners part at equilibrium.
